One test concerns the target chicken IgY (chicken). The experiment in a line: SPR. (SPR reads the build-up and loss of mass on a sensor chip optically.)
Test [1] deals with FcY (CH3-CH4 domains of chicken IgY) (chicken). The experiment in a line: SEC.
Test [2] deals with CHIR-AB1 extracellular domain (chicken). The test is described as follows: AUC.
For test [3] the target is unchanged. The experiment in a line: SPR.

A word on the Kd: it is the equilibrium constant for the complex coming apart. In general, stoichiometry N refers to a count of units in the complex or per binding partner. In the test with chicken IgY (chicken), “CHIR-AB1 extracellular domain (receptor)” had a Kd of 800 nM. The stoichiometry N in test [1] was found to be 1.83; in test [2], 2.

In test [3], chicken IgY (natural protein) came in with a dissociation constant (Kd) of 17 nM; a microscopic KD, binding of the first CHIR-AB1 to IgY (bivalent analyte model) of 403 nM; a microscopic KD, binding of the second CHIR-AB1 to IgY (bivalent analyte model) of 3.9 µM.
